Assay: soluble on expression in E. coli; label from the status in PepcDB or PDB records

| Sequence | soluble on expression in E. coli |
| --- | --- |
| MSWWQDMDQRGGVSSPSGALASAEPAPASVTLAELLHLVQKGQEVPGLEKRHITATHGEPTASLLPRRPKPWEDAGSAASPCTIALDTRTQPPTIEERSRGSPAAQLDGGPRVS | soluble |
| MSYAYLFKYIIIGDTGVGKSCLLLQFTDKRFQPVHDLTIGVEFGARMVTIDGKQIKLQIWDTAGQESFRSITRSYYRGAAGALLVYDITRRDTFNHLTSWLEDARQHSNSNMVIMLIGNKSDLEARREVKREEGEAFAREHGLVFMETSAKTAANVEEAFIDTAKEIYRKIQEGVFDINNEANGIKLGPQHSPSSPNSPGGNATGGLGGGSGCC | not soluble |
| MSYFGGLISTLFERRYQQALSDEVDSRTTCELCEALLSSHGEVSGVTLARNLLDRYAAMTEAEKTALFGFMAHDLEIDPDAVTHTLEAYKNNPGKDTYRAFAAACEPRRQELARRLNQVPGATGQLVQMRKDLLRMMKDHPDLEPVDVDFKHLFSSWFNRGFLVLRPIDWSSPANILEQIIAYEAVHEIDSWDELRRRLQPSDRRCFGFFHPSMADEPLIFVEVALTEGVPSSVQDLLADERDVITAQDADTAVFYSISNCQSGLAGISFGNSLIKQVVADLAKDLPGLTTFVTLSPIPGLNRWLQDADIDALKDADTQALAAHYLLEAKRSDGMPFDPVARFHLGNGALVHAVHAEADVSPNGRKQSNGAMVNYLYDLSQISQNHEKFVGDKIVVASTTVKALSGSVTTSLGTAAAAAALEHHHHHH | soluble |
| MSYITKQDKVIAEAIEREFQRQNSNIELIASENFVSEAVMEAQGSVLTNKYAEGYPGRRYYGGCEFVDVTESIAIDRAKALFGAEHVNVQPHSGSQANMAVYLVALEMGDTVLGMNLSHGGHLTHGAPVNFSGKFYNFVEYGVDKDTERINYDEVRKLALEHKPKLIVAGASAYSRTIDFKKFKEIADEVNAKLMVDMAHIAGLVAAGLHPNPVEYADFVTTTTHKTLRGPRGGMILCKEEYKKDIDKTIFPGIQGGPLEHVIAAKAVAFGEALENNFKTYQQQVVKNAKVLAEALINEGFRIVSGGTDNHLVAVDVKGSIGLTGKEAEETLDSVGITCNKNTIPFDQEKPFVTSGIRLGTPAATTRGFDEKAFEEVAKIISLALKNSKDEEKLQQAKERVAKLTAEYPLYQ | not soluble |
| MSYKAYPFFRDILINECIYFASKNKKLVRLNYKSEAYVGVWTEESVAVSFLTSRDIPFDKVVKMDVDRFATYELDELFDEQDHIIMNQTMEEEGHLLNVVAVTQEVMTELDKIRIKEFVQDVAKYDEVYGLTKKGSKQFILISENDSDEKKPHIMPVWSIKNRALKVRDEDFEECDLITIEGSVFGEWLDELRDDHKAVAIDLKTGVVGTIVSAQKLSNELTF | not soluble |
| MSYKSSKYNLFIERKREVISFNTLRNIIAKCDIETKEILENETFNKLPPDLLNKMISEGIIVNKELNELNIIKLTRMMYYGQLLHYLSIGLTLVMTYSCNLRCPYCYEGDIKSKGGLLTREKIETILTFASAHAQGDKKPTISVSFYGGEPLLNWKGCEYTLQRLEEMKENKEIRDYSAGFVTNGTLINEDIVDAINNYNVYSMQITLDGPKEIHDKRRIKSNGEGTFDQIIENIKLLNRRIANKNFHLALRINVDKTNYKKIPELLDFLKDEGLGGIPISYGIVRGNLPYCSSNCGVYFSGSDLQKYLPYLWKEAYRRGFEVWTRPNLRFIYCGYDNPFGYVIDPELKVYPCWEMVGIEDYQIGEIQKDGTMKITPFYYDAKSRDPTEYDECKNCKLLPVCMGGCAMESIRKNGHPNGPGCDINKYIWKEGLKFYLMKKYPNLFSKETLIENLGRVPNRDEQTKNRIMFNT | not soluble |
| MSYLVVTIKVILITGMPGSGKSEFAKLLKERGAKVIVMSDVVRKRYSIEAKPGERLMDFAKRLREIYGDGVVARLCVEELGTSNHDLVVFDGVRSLAEVEEFKRLLGDSVYIVAVHSPPKIRYKRMIERLRSDDSKEISELIRRDREELKLGIGEVIAMADYIITNDSNYEEFKRRCEEVTDRVLKNG | not soluble |
| MSYQPPPNGQMPGYPQQQFNQQPQFQSNGFPPPAAPQKPAQVPGGFPPPHQQPNGQYQNGGLNGNSSHLAQSVNNMSIGARSTPSAQPPNPYQPAGYPGAPPQQLQQVQRQQTPQQFAAVPQSVQAPSATPAGPLQAMQQAPAPTPGIPQMNQGAHLPPQPHQIHQPTPLRPQIPGFPQAGGSPSSFQAGAPTSQNVQGYPGGPSSAPSAYPGAPQVPQAPNSFIPPGTGGFPPGQPTAGSFPPGPQVPGSYPSGPADIPQGPGMPRAFPPGASAPVAPGMPGAFPPGQGGPGMPGSFPPGAPGPGGPGMPGSFAPGAPGPGGPGGYPSGGPGMPGMQGGYPGGPPQQRQQRLDPNMMPSAVQVIDDDSSTRSGIFPTGYPNAELPPLVSTNSFAQDQGNCNPKFMRSTLYTAPQTNDILKASQIPLAVVISPFASLTEYEKEPPVVDLGPQGPIRCQRCKAYICPFMEFQDGGRSFRCPFCHARTSVEDAYFAHLDHTGRRTDIEMRPELCLGAYDLVATKQYCKNGIAPKEPAFIFMIDVSYNAISNGMLPILCQNLEKVLRNLPRESGQLESSMRIGLATFDQAVHFFDISSASPKMLVMSDVQEPFVPMVDGLLLPYNEALPGLRAALAEIPKLFSQSKTTETILQPVVQAGLDALKCADRAGKVILFSTVLPTYDAPGKLKSKNDRSLLGTDKEKNALVPQEDSYTKLGEQCVKSGVTVDLFLFPNAFIDVATIGQLSAVTGGSIFKFQYFSADKDGVRMLNELERHVSKKIAFDCMARVRTSTGIRPITFTGSFYMENSTDLELATLDESKAFITEIKHDDSLKDPASFIQTAVLYTSMTGQRRLRILNLCLPVTADYNQVYRLADPEALTAFMLKQAVQLNRDKGSSEMRESLSSRCAQFLATYREKCSEGAPLGQLILPESLKLMPLYVNSILKNDAISGGSEMTVDDKVWQMELIRGLRTENVMPLIYPRVMPISDLQINDTEEMKDLPKPVRASSEFLENSKAYIIDNGVILFVWVGSACPQTWVQDVFGVGATNQIDTESGTIPEKDNGHSRALRRAIQLLPRGIRERKTFVVVEKSGLEPWMKKFLVEDKAGPANMSYVDYLVDIHRKIRDLIS | not soluble |
| MSYRQMLIHRCDIYHEAAQAPSAGRFGIPADRLQPVISYPDTPDEQDVPCYFTEKTQQLIQEEPDQTVYHSFLVHFPLSADIRVNDKIIWENHKYILKLPKRIRHHHWEVVAVRDESLLEHHHHHH | soluble |
| MTAASIDRELVPWSDPEFRNNPYPWYRRLQQDHPVHKLEDGTYLVSRYADVSHFAKLPIMSVEPGWADAGPWAVASDTALGSDPPHHTVLRRQTNKWFTPKLVDGWVRTTRELVGDLLDGVEAGQVIEARRDLAVVPTHVTMARVLQLPEDDADAVMEAMFEAMLMQSAEPADGDVDRAAVAFGYLSARVAEMLEDKRVNPGDGLADSLLDAARAGEITESEAIATILVFYAVGHMAIGYLIASGIELFARRPEVFTAFRNDESARAAIINEMVRMDPPQLSFLRFPTEDVEIGGVLIEAGSPIRFMIGAANRDPEVFDDPDVFDHTRPPAASRNLSFGLGPHSCAGQIISRAEATTVFAVLAERYERIELAEEPTVAHNDFARRYRKLPIVLS | soluble |
| MTAIRFDHVDVIFGTHTKEALKLLDQGLGRAEILKRTGQVLGVEDACLDVNRGEICVLMGLSGSGKSSLLRCINGLNKVSRGKLLIEHEGSQVDIANCSPATLKAMRTKRIAMVFQKFALMPWLTVAENVGFGLEMQGRPAAERKKLIDEKLELVGLSQWRDKRPDSLSGGMQQRVGLARALAMDGDILLMDEPFSALDPLIRQQLQDELLVLQRQLHKTIVFVSHDLDEALKIGTRIAIMKDGRIIQHGKPEEIVLSPADDYVRTFVAHTNPLNVLCGQSLMRGLDQCIRQNDEICFDQGRDCWIGLSEGDVLKGARQGSNVIDLQRWRQGDPVEKLRREPTLVDVSIRMRDALQIRYQTGHKLVLQEQDRVVGVLGDSELYHALLGKN | not soluble |
| MTAKKEHLFIVFENLIKIKSECSCEIFSECGISDITVKQIGYLKAIDEHGEVTFSRLAKITKNSKPTITEMVNKFVRMECVYREKCPEDGRIFYIRLTEKGQRIARAEESSLLRVIEKMAESLNEKEIETLIRILGKVR | not soluble |
| MTAPLIRVSRKRTADPHDALILHTKRAKHGGNPLVFTLYKAAGNDLELNGARVLDLPTQEHGMELADEENPLGFVKDEAVGLVGEVEKNVKKPAEQVSLNGRLLQPVTDGGGAAAGSSDDVVYDYYAIHEKRGNPEVVGNLEQDIEGADFRFAKRDELDLGDEDDSDGPPADDEDDSNDEDNWRNDYPDEESYDEDSDNGDPYGISEPDHWHAGEEAYSDESFHRRLQNMDLNDERYEAFYEGDETDEDAD | soluble |

Reference: the DeepSol protein solubility set
